In the supplement of paper PMC11316812:
± gives the standard deviation of the averaged measurements.

How the values were obtained:
[1] = test system: MCF7; experiment: percentage of EdU-negative (G0-arrested) nuclei per well, 72 h; higher = more G0 arrest; settings: reference: sequence is the full UniProt precursor, the tested protein was the secreted form or ectodomain
[2] = test system: hTERT-HMEC; experiment: as above; settings: reference: sequence is the full UniProt precursor, the tested protein was the secreted form or ectodomain
[3] = protein concentration 0.0245 µM
[4] = protein concentration 0.0195 µM
[5] = protein concentration 0.0182675 µM
[6] = protein concentration 0.182675 µM
[7] = protein concentration 0.0225 µM
[8] = protein concentration 0.03125 µM
[9] = protein concentration 0.3125 µM
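Also: secreted proteins added to cultured cells, EdU pulse at the end, nuclei found by Hoechst imaging, EdU status from nuclear versus surrounding ring intensity ratio, PBS as neutral control.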

MGTPRIQHLLILLVLGASLLTSGLELYCQKGLSMTVEADPANMFNWTTEEVETCDKGALCQETILIIKAGTETAILATKGCIPEGEEAITIVQHSSPPGLIVTSYSNYCEDSFCNDKDSLSQFWEFSETTASTVSTTLHCPTCVALGTCFSAPSLPCPNGTTRCYQGKLEITGGGIESSVEVKGCTAMIGCRLMSGILAVGPMFVREACPHQLLTQPRKTENGATCLPIPVWGLQLLLPLLLPSFIHFS [Q9BY14]
percentage of EdU-negative [1, 3]: 25.5 ± 2%
percentage of EdU-negative ([1]; protein concentration 0.245 µM): 26.5 ± 0.59%
percentage of EdU-negative [2, 3]: 5.14 ± 0.066%
percentage of EdU-negative ([2]; protein concentration 0.245 µM): 5.33 ± 0.8%

MNCRELPLTLWVLISVSTAESCTSRPHITVVEGEPFYLKHCSCSLAHEIETTTKSWYKSSGSQEHVELNPRSSSRIALHDCVLEFWPVELNDTGSYFFQMKNYTQKWKLNVIRRNKHSCFTERQVTSKIVEVKKFFQITCENSYYQTLVNSTSLYKNCKKLLLENNKNPTIKKNAEFEDQGYYSCVHFLHHNGKLFNITKTFNITIVEDRSNIVPVLLGPKLNHVAVELGKNVRLNCSALLNEEDVIYWMFGEENGSDPNIHEEKEMRIMTPEGKWHASKVLRIENIGESNLNVLYNCTVASTGGTDTKSFILVRKADMADIPGHVFTRGMIIAVLILVAVVCLVTVCVIYRVDLVLFYRHLTRRDETLTDGKTYDAFVSYLKECRPENGEEHTFAVEILPRVLEKHFGYKLCIFERDVVPGGAVVDEIHSLIEKSRRLIIVLSKSYMSNEVRYELESGLHEALVERKIKIILIEFTPVTDFTFLPQSLKLLKSHRVLKWKADKSLSYNSRFWKNLLYLMPAKTVKPGRDEPEVLPVLSES
percentage of EdU-negative ([1]; protein concentration 0.03 µM): 26.3 ± 1.8%
percentage of EdU-negative ([1]; protein concentration 0.3 µM): 28.5 ± 0.78%
percentage of EdU-negative ([2]; protein concentration 0.03 µM): 4.552 ± 0.028%
percentage of EdU-negative ([2]; protein concentration 0.3 µM): 15.3 ± 3%

MIIDSSRIPSFTQLHSTMTRAPLLLLCVALVLLGHVNGATVRNEDKWKPLNNPRNRDLFFRRLQAYFKGRGLDLGTFPNPFPTNENPRPLSFQSELTASASADYEEQKNSFHNYLKG [Q6UXQ4]
percentage of EdU-negative [1, 4]: 24.6 ± 2.1%
percentage of EdU-negative ([1]; protein concentration 0.195 µM): 25.2 ± 1%
percentage of EdU-negative [2, 4]: 4.53 ± 0.63%
percentage of EdU-negative ([2]; protein concentration 0.195 µM): 7.36 ± 0.4%

MLKALFLTMLTLALVKSQDTEETITYTQCTDGYEWDPVRQQCKDIDECDIVPDACKGGMKCVNHYGGYLCLPKTAQIIVNNEQPQQETQPAEGTSGATTGVVAASSMATSGVLPGGGFVASAAAVAGPEMQTGRNNFVIRRNPADPQRIPSNPSHRIQCAAGYEQSEHNVCQDIDECTAGTHNCRADQVCINLRGSFACQCPPGYQKRGEQCVDIDECTIPPYCHQRCVNTPGSFYCQCSPGFQLAANNYTCVDINECDASNQCAQQCYNILGSFICQCNQGYELSSDRLNCEDIDECRTSSYLCQYQCVNEPGKFSCMCPQGYQVVRSRTCQDINECETTNECREDEMCWNYHGGFRCYPRNPCQDPYILTPENRCVCPVSNAMCRELPQSIVYKYMSIRSDRSVPSDIFQIQATTIYANTINTFRIKSGNENGEFYLRQTSPVSAMLVLVKSLSGPREHIVDLEMLTVSSIGTFRTSSVLRLTIIVGPFSF
percentage of EdU-negative [1, 5]: 28 ± 2.2%
percentage of EdU-negative [1, 6]: 29.1 ± 1.9%
percentage of EdU-negative [2, 5]: 4.75 ± 0.46%
percentage of EdU-negative [2, 6]: 15.7 ± 1.1%

MQLTRCCFVFLVQGSLYLVICGQDDGPPGSEDPERDDHEGQPRPRVPRKRGHISPKSRPMANSTLLGLLAPPGEAWGILGQPPNRPNHSPPPSAKVKKIFGWGDFYSNIKTVALNLLVTGKIVDHGNGTFSVHFQHNATGQGNISISLVPPSKAVEFHQEQQIFIEAKASKIFNCRMEWEKVERGRRTSLCTHDPAKICSRDHAQSSATWSCSQPFKVVCVYIAFYSTDYRLVQKVCPDYNYHSDTPYYPSG
percentage of EdU-negative [1, 7]: 28.1 ± 0.43%
percentage of EdU-negative ([1]; protein concentration 0.225 µM): 31.8 ± 2.5%
percentage of EdU-negative [2, 7]: 6.5 ± 0.97%
percentage of EdU-negative ([2]; protein concentration 0.225 µM): 6.09 ± 1.7%

MTCKMSQLERNIETIINTFHQYSVKLGHPDTLNQGEFKELVRKDLQNFLKKENKNEKVIEHIMEDLDTNADKQLSFEEFIMLMARLTWASHEKMHEGDEGPGHHHKPGLGEGTP
percentage of EdU-negative [1, 8]: 26 ± 1.1%
percentage of EdU-negative [1, 9]: 24.6 ± 0.91%
percentage of EdU-negative [2, 8]: 5.56 ± 0.9%
percentage of EdU-negative [2, 9]: 5.25 ± 0.34%

MAPAGVSLRATILCLLAWAGLAAGDRVYIHPFHLVIHNESTCEQLAKANAGKPKDPTFIPAPIQAKTSPVDEKALQDQLVLVAAKLDTEDKLRAAMVGMLANFLGFRIYGMHSELWGVVHGATVLSPTAVFGTLASLYLGALDHTADRLQAILGVPWKDKNCTSRLDAHKVLSALQAVQGLLVAQGRADSQAQLLLSTVVGVFTAPGLHLKQPFVQGLALYTPVVLPRSLDFTELDVAAEKIDRFMQAVTGWKTGCSLMGASVDSTLAFNTYVHFQGKMKGFSLLAEPQEFWVDNSTSVSVPMLSGMGTFQHWSDIQDNFSVTQVPFTESACLLLIQPHYASDLDKVEGLTFQQNSLNWMKKLSPRTIHLTMPQLVLQGSYDLQDLLAQAELPAILHTELNLQKLSNDRIRVGEVLNSIFFELEADEREPTESTQQLNKPEVLEVTLNRPFLFAVYDQSATALHFLGRVANPLSTA
percentage of EdU-negative [1, 8]: 23.9 ± 1.3%
percentage of EdU-negative [1, 9]: 26.5 ± 1.4%
percentage of EdU-negative [2, 8]: 5.56 ± 0.51%
percentage of EdU-negative [2, 9]: 5.41 ± 0.61%
